# Source: the RNAGym collection of RNA variant scans (doi:10.1073/pnas.2313332121)
# This sample holds only a part of the variants without activity.
# B1: TPR 5TU (parent)
# chain: GGAUCUUCUCGAUCUAACAAAAAAGACAAAUCUGCCACAAAGCUUGAGAGCAUCUUCGGAUGCAGAGGCGGCAGCCUUCGGUGGCGCGAUAGCGCCAACGUUCUCAACUAUGACACGCAAAACGCGUGCUCCGUUGAAUGGAGUUUAUCAUG
# Variants of: B1
# Assay: polymerase ribozyme fitness, log enrichment relative to wild type (log ratio); higher = more active; in vitro selection for triplet polymerase activity
# Method in brief: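 Fitness measures genotype enrichment against wild-type enrichment on a logarithmic scale, with inverse-variance-weighted averaging of replicates. The logarithm is base 2, and genotypes were kept only with ≥10 input reads and ≥1 read per output in Illumina sequencing. The sequenced libraries came from one triplicate in vitro selection round, including frozen incubation at −7 °C, of PCR-built, transcribed mutant libraries of each subunit of a heterodimeric triplet polymerase ribozyme.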
row,Variant,polymerase ribozyme fitness (log ratio)
1,U56A C75A G141A,≤ -4.2
2,C57G U82C C93A C95U C116U,-3.34
3,U56A U78A C79A,≤ -4.2
4,C57U G86A C99G,-3.33
5,U56A G81A,-0.577
6,C57U G86A A120G G141C,-2.82
7,C57U G86A A98U,-1.55
8,U56C U102G A142G,-3.95
9,G58C C96U,-1.02
10,U56G G59A G81U A89C G92U U139A,≤ -4.2
11,G59A A60C U61A G81A C103G,≤ -4.2
12,C57U G83A C99A,-2.32
13,U56A C69A,-1.46
14,C57U C103G,-1.7
15,C57U G59C C93A U135G,≤ -4.2
16,G59A C76G G80C C116G C118G,≤ -4.2
17,C57G G86U,-1.26
18,U56A C57U C96U,-0.285
19,U56A G58U C63A A115U C118U,-1.35
20,C57G C103G,-2.16
21,U56G G58C U61A,-2.98
22,G58C C76A G83U,-2.66
23,C57A A60G C75G A91U G136A A137G U144G,≤ -4.2
24,G58A C76U U101G,0.481

row,Variant,polymerase ribozyme fitness (log ratio)
1,G58A C85U A106G,-0.0661
2,U56A G124C,-1.68
3,U56C C93U C114G A119G,-3.79
4,G58C A60C G94A G100C C103A,≤ -4.2
5,U56G A60G G84A,-0.664
6,C57U C76G A115C A150G,≤ -4.2
7,U56C A64U C93A C95U G133C,≤ -4.2
8,G58A C87G A142C,≤ -4.2
9,G59A A107U G126A,-3.68
10,U56A G74U C85G G133U,≤ -4.2
11,C57A G62A G86A A113G A120U U127C G136A A142C,≤ -4.2
12,U56A U61A C114G,-3.96
13,U56A G141U,0.137
14,G59A A122G U148C,-3
15,C57A G141A G152U,-3.49
16,C57G G70A C87U C123A,≤ -4.2
17,G58A A107U G126U C149G,≤ -4.2
18,C57U C85U C87U U144G,-0.0249
19,C57U C79A,-4.19
20,C57U G124U G128U,-3.76
21,G58A A73U C96U,-0.178
22,G58C C72U A98G,0.461
23,U56G C75G C93U,-4.19
24,U56A A89G,-2.69

row,Variant,polymerase ribozyme fitness (log ratio)
1,U56A C63U A64U G84A G128A,≤ -4.2
2,C57G C85G,-1.95
3,C57A A91G U101A A142G,-4.08
4,U56A C123U,0.128
5,G58A G88C G92A C96A,≤ -4.2
6,C57A A107C C125A G133A G136A U151A,≤ -4.2
7,G58C G59A C85U G133C,-1.29
8,G58C C95U,-0.651
9,C57G C93A,-2.2
10,C57G C93G,-4.06
11,G58C C85A,-3.71
12,U56G G58A C63G U101G A120U,-2.56
13,C57U C79A A110C,≤ -4.2
14,G58A G71U,-0.673
15,C57U C85U U146G,-1.44
16,U56A G70A G81C,≤ -4.2
17,C57U G59U C93U G136U,-2.96
18,G58C C85G U90A U139A G140U,≤ -4.2
19,U55G U127G,-2.9
20,C57U C96U C103U G117U G136A G141U,≤ -4.2
21,C57U G92A U104C U135C,≤ -4.2
22,C57A U78C C95G C99G,-3.07
23,U56C C93U,-1.53
24,C57U A66G,-3.4

row,Variant,polymerase ribozyme fitness (log ratio)
1,C57G C93U A115U,-3.44
2,G59A A64U C85A G92A U144C,≤ -4.2
3,G58C C76G U77G,≤ -4.2
4,C57A G83C C87U U134G U139A U144G,≤ -4.2
5,G58C C95U A150C,-3.72
6,C57A U61A C95U A97U A115U U144C,≤ -4.2
7,U56C C85G U135C A142U G152A,≤ -4.2
8,U56G A97C,-1.65
9,G58U G92A,-2.51
10,C57G U101A,0.403
11,U56A C149A,-3.67
12,U56G G59U C87A,≤ -4.2
13,C57A G140A,≤ -4.2
14,C57G U82A G83U G141U,-1.49
15,U56A U90G,≤ -4.2
16,U56A C93U A147G,-1.96
17,G59A C75U C85U U144A,-1.61
18,G58U C95U,-0.414
19,G58U G59U U82A G84A A115U G143A,≤ -4.2
20,G58A G86A,-1.63
21,U56G C72U,-0.106
22,U56A C95A,-0.487
23,G58A C93A G112C,-4.12
24,G58A C87A A91C C99U,≤ -4.2

row,Variant,polymerase ribozyme fitness (log ratio)
1,G58C A73G U101C C125G,-0.932
2,U56C C85G C149A,≤ -4.2
3,G58C G143A,-0.724
4,G58C U82A G143C,-1.86
5,G58A C85G,-2.86
6,C57U G83U,-1.72
7,C57G G83A G124U G141A,-1.22
8,C57U G81C A106U,-1.74
9,U55G U90A,≤ -4.2
10,U56A C96U A119U,-0.585
11,C57A A98G C123G U145G,0.398
12,C57A A122C,-0.0129
13,C57G G88U G94A,≤ -4.2
14,C57A C72G U77A C87A U127A G136A,≤ -4.2
15,G58U G94U G140U,-3.9
16,C57U U102G,-1.87
17,G58A G84A U104G G126U,-0.778
18,C57A G59C A60G,0.42
19,C57G A73C C87G A97G U101G U130C,≤ -4.2
20,C57A C96A,-0.383
21,G58A C95U G143C,-1.9
22,U56A G100U,-4.09
23,C57G C75U G86A A91C,≤ -4.2
24,G58C A64C C69G C85U A110U U134G,≤ -4.2

row,Variant,polymerase ribozyme fitness (log ratio)
1,C57G G59A U78G G84A,≤ -4.2
2,U56A A73U C87G C99G,≤ -4.2
3,G58A U104A,0.105
4,U56A C105U A121C G133U G140U,≤ -4.2
5,U56A C105U C116G,-0.192
6,U56G C85G A115U,-3.43
7,U56A U101G,0.0793
8,U56A U77C,-2.93
9,C57A C85A A107G,≤ -4.2
10,U56A G81U U101G,-0.889
11,G59A A137U G141C,-3.95
12,C57A U101G,0.71
13,G58C C87G,≤ -4.2
14,C57A U61G U78G G88A U148A,≤ -4.2
15,C57A G128C,-2.62
16,C57U U101A,0.41
17,C57U U101G,-0.262
18,G58C G84U A97U,-3.58
19,C57A G86U,-1.32
20,U56G C85A,-2.05
21,U56G C85U,-1.42
22,G58U A60G A137C,≤ -4.2
23,C57U C118G U145C,-0.881
24,C57G C87U A89C C116A C132A,-4.13

row,Variant,polymerase ribozyme fitness (log ratio)
1,U56A U61G G65A C85A G86A A121U U127A,≤ -4.2
2,C57G G58U C93A,-1.39
3,G58C A119C,-0.0646
4,G58C A60G G92A A121U,-2.24
5,G58C C96U A150G,-0.919
6,C57U G68U,-3.89
7,U56A A107U,-2.87
8,G58C C72A A110C A147G A150C,≤ -4.2
9,G58U A89G,-0.659
10,U56G A60C G81A G94U A106G,-3.84
11,C57A A121U,-0.0826
12,C57G G84A,-0.518
13,C57G G84U,-1.79
14,C57U G84U G126C,-0.969
15,G58A U101G C132G G133C A142C,-3.72
16,U56G U78C C99G G124C C125U,-2.94
17,U56C G94C,0.00198
18,C57U C69A G84U A121C,-2.25
19,U56A C96U U101C U139G,-0.437
20,C57G G124U U148G,≤ -4.2
21,C57A C96U C108U G140A,≤ -4.2
22,U56C C79U,-1.8
23,U56G G71C C123G,-3.58
